Where a chain is given by its changes, count along the chain named.
B1: Round 2 CTLA4 A-B11-5 (ligand)
chain: ITPKSATKRVKETVMLSCDYSTSTEELTSLRIYWQKDSKMVLAILPGKVQVWPEYKNRTITDMNDNPRIVILALRLSDSGTYTCVIQKPDLKGAYKLEHLTSVRLMIRADFPVPTINDLGNPSPNIRRLICSTSGGFPRPHLYWLENGEELNATNTTLSQDPETKLYMISSELDFNMTSNHSFLCLVKYGDLTVSQTFYWQESKPTPSANQHLTWTIIIPVSAFGISVIIAVILTCLTCRNAAIRRQRRENEVEMQSCSQSP
B2: Round 2 CTLA4 A-G8-1 (ligand)
chain: B1 chain with A6V, S21N, R75P
B3: Round 2 CTLA4 A-F6-9 (ligand)
chain: B1 chain with A6V
B4: Round 1 CTLA4BP-5 (ligand)
chain: VIHVTKEVKEVATLSCGHNVSVEELAQTRIHWQKEKKMVLTMMSGDMNIWPEYKNRTIFDITNNLSIVILALRPSDEGTYECVVLKYEKDAFKREHLAEVTLSVKADFPTPSISDFEIPPSNIRRIICSTSGGFPEPHLSWLENGEELNAINTTVSQDPGTELYTVSSKLDFNMTTNHSFMCLIKYGHLRVNQTFNWNTPKQEHFPDNLLPSWAITLISVNGIFVICCLTYCFAPRCRERRRNERLRRESVRPV
notes: also called R1-5; R1 CTLA-4BP-5
B5: Round 2 CTLA4BP 5x3-c4 (ligand)
chain: B4 chain with H31Y, H138R, S140A, L142M, N144D, V155A, G160E, H178R, M181V, L210F
B6: Round 2 CTLA4BP 2x1-c4 (ligand)
chain: B4 chain with S15P, T101M, S114T, S140F, T165A, S179N
B7: Round 2 CTLA4BP 5x1-d7 (ligand)
chain: VIHVTKEVKEVATLSCGHNVPVEELAQTRIYWQKEKKMVLTMMSGDMNIWPEYKNRTIFDITNNLSIVILALRPSDEGTYGCVVLEYEKDAFKREHLAEVMLSVKADFPTPSITDLEIPPSNIRRIICSTSGGFPEPHLFWLENGEELNAINTTASQDPETELYAVSSKLDFNMTTNHSFMCLIKYGHLRVNQTFNWNTPKQEHFPDNLLPSWAITLISANGIFVICCLTYCFAPRCRERRRNERLRRESVHPV
B8: Round 2 CTLA4BP 2x4-h11 (ligand)
chain: B4 chain with H31Y, K86E, T101M, T165A, T230A, E239G
B9: Round 2 CTLA4BP 5x2-e12 (ligand)
chain: B4 chain with D46G, P120T, N152S, T165A, H178R, M181V, P200T
B10: Round 2 CTLA4BP 2x1-b12 (ligand)
chain: VIHMTKEVKEVATLSCGHNVSVEELAQTRIYWQKEKKMVLTMMSGDMNIWPEYKNRTIFDITNNLSIVILALRPSDEGTYECVALKYEKDAFKQEHLAEVTLSVKADFPTPSISDFEIPPSNIRRIICSTSGGFPEPRLAWMEDGEELNAINTTVSQDPETELYTVSSKLDFNMTANHSFMCLIKYGHLRVNQTFNWNTPKQEHFPDNLLPSWAITLISVNGIFVICCLTYCFAPRCRERRRNERLRRESVCPV
B11: Round 2 CTLA4BP 2x2-f1 (ligand)
chain: B4 chain with P74L, P120T, S140F, V155A, G160E, H178R, M181V
B12: Round 2 CTLA4BP 2x1-g8 (ligand)
chain: B4 chain with I67V, S114T, H178R, M181V, R241K, R242S
B13: Round 2 CTLA4BP 5x2-b7 (ligand)
chain: B4 chain with S114T, T176A, M181V, V220A
B14: Round 2 CTLA4BP 5x2-d7 (ligand)
chain: B4 chain with V4M, H18L, T101M, G160E, E162G
B15: Round 2 CTLA4BP 2x1-f10 (ligand)
chain: B4 chain with T101M, S114T, H138R, S140A, L142M, N144D, T165A, F224S, R252C
B16: Round 1 CTLA4BP-11 (ligand)
chain: B7 chain with V4M, P21S, G81E, E86K, L116F, A155V, P200T, A220V, Y231H
notes: also called R1-11; R1 CTLA-4BP-11
B17: Round 2 CTLA4BP 5x3-c3 (ligand)
chain: B4 chain with V4M, H18P, H31Y, P120T, Y231H, R252C
B18: Round 2 CTLA4BP 2x1-h12 (ligand)
chain: B4 chain with H18L, T101M, S114T, V220A, R241K, R242S, R252C
B19: Round 1 CTLA4BP-13 (ligand)
chain: VIHVTKEVKEVATLSCGHNVSVEELAQTRIYWQKEKKMVLTMMSGDMNIWPEYKNRTIFDITNNLSIVILALRPSDEGTYECVVLKYEKDAFKREHLAEVTLSVKADFPTPSISDFEIPTSNIRRIICSTSGGFPEPHLFGLENGEEINAINTTASQDPETELYTVSSKLDFNMTPNRSFVCLIKYGHLRVNQTFNWNTPKQEHFPDNLLPSWAITLISANGIFVICCLTYCFAPRCRERKSNERLRRESVRPV
notes: also called R1-13; R1 CTLA-4BP-13
B20: Round 2 CTLA4BP 5x3-e8 (ligand)
chain: B4 chain with H31Y, K86E, P120T, S140F, G160E, T176A, M181V, R236G, R252C
B21: Round 2 CTLA4BP 5x2-h11 (ligand)
chain: VIHVTKKVKEVATLSCGHNVSVEELAQTRIYWQKGKKMVLTMMSGDMNIWPECKNRTIFDITNNLSIVILALRPSDEGTYECAVLKYEKDAFKREHLAEVTLSVKADFPTPSISDFEIPTSNIRRIICSTSGGFPEPHLFWLENGEELNAINTTASQDPETELYAVSSKLDFNMTTNHSFMCLIKYGHLRVNQTFNWNTPKQEHFPDNLLPSWAITLISVNGIFVICCLTYCFAPRCRERKSNERLRRESVRPV
B22: Round 2 CTLA4BP 5x4-a1 (ligand)
chain: B4 chain with H31Y, Y53H, S114T, P120T, H178R, M181V
B23: Round 1 CTLA4BP-27 (ligand)
chain: B4 chain with H18L, H31Y, T101M, G160E, T176A, M181V, R245T
notes: also called R1-27; R1 CTLA-4BP-27
B24: Round 2 CTLA4BP 5x1-f1 (ligand)
chain: B4 chain with H18L, H31Y, Y53H, S114T, S140F, V155A, G160E, T176A, M181V, R245T
B25: Round 2 CTLA4BP 2x2-f12 (ligand)
chain: B4 chain with E81G, K86E, T101M, G160E, T165A, V191A
B26: Round 2 CTLA4BP 5x2-f3 (ligand)
chain: B19 chain with S44P, K86R, F140S, G141W, I148L, P176T, Y231H

These binders were tested against T1, Soluble CTLA-4-Ig (human, UniProt P16410 36-161, FITC-conjugated in the two-colour FACS assays; unlabelled and detected with FITC goat anti-human IgG in the concentration-dependent assay) (assay: two-colour FACS profile on transfected cells; score of preference for CTLA-4-Ig over CD28-Ig vs WT hB7-1).
T1 construct: extracellular domain; Bought from R&D Systems; also called sCTLA-4-Ig; CTLA-4-Ig Fc; not shown: Fc portion of human IgG1
T1 sequence (P16410 36-161): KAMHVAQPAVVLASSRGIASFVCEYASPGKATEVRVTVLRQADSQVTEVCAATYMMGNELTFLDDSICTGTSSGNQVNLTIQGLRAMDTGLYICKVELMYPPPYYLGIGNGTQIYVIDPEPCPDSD

| Binding Score | Binder |
| --- | --- |
| 1 | B1 |
| 1 | B2 |
| 1 | B3 |
| 2 | B4 |
| 1 | B5 |
| 1 | B6 |
| 1 | B7 |
| 0 | B8 |
| 0 | B9 |
| 1 | B10 |
| 1 | B11 |
| 1 | B12 |
| 1 | B13 |
| 1 | B14 |
| 1 | B15 |
| 1 | B16 |
| 1 | B17 |
| 1 | B18 |
| 1 | B19 |
| 1 | B20 |
| 1 | B21 |
| 0 | B22 |
| 1 | B23 |
| 1 | B24 |
| 1 | B25 |
| 0 | B26 |
